Assay results as given in the supplement of paper PMC10724198.
± gives the standard deviation of the averaged measurements.

How the values were obtained:
Saccharomyces cerevisiae [1] = test: protein stability index of tFT-peptide fusion (C-terminal peptide) (PSI (0-1 scale)); higher = more stable (slower turnover); conditions: genetic background: wild type; temperature: 30 C
Saccharomyces cerevisiae [2] = test: as above
Procedure: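 MPS profiling in S. cerevisiae of the tFT-X12 degron library: putative degron peptides plus stable controls, 12 aa, fused to the C-terminus of a sfGFP-mCherry timer. Cells are FACS-sorted into 8 mCherry/sfGFP bins and deep-sequenced. PSI runs from 0 (unstable) to 1 (stable). Backgrounds are wild type, das1Δ and doa10Δ at 30 °C, and wild type, das1Δ, cdc34-1 and cdc53-1 at 37 °C; 2-3 technical replicates each.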

[3] = genetic background: cdc34-1, temperature: 37 C
[4] = genetic background: cdc53-1, temperature: 37 C
[5] = genetic background: das1 deletion, temperature: 30 C
[6] = genetic background: das1 deletion, temperature: 37 C
[7] = genetic background: doa10 deletion, temperature: 30 C
[8] = genetic background: wild type, temperature: 30 C
[9] = genetic background: wild type, temperature: 37 C
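Note: PSI is a weighted mean of sequencing reads over stability bins, variants kept only with over 10 reads, mCherry proximal and sfGFP distal, peptide attached via GGGS linker.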

Row | Sequence | protein stability index (Saccharomyces cerevisiae [1]) | protein stability index (Saccharomyces cerevisiae [2]; [3]) | protein stability index (Saccharomyces cerevisiae [2]; [4]) | protein stability index (Saccharomyces cerevisiae [2]; [5]) | protein stability index (Saccharomyces cerevisiae [2]; [6]) | protein stability index (Saccharomyces cerevisiae [2]; [7]) | protein stability index (Saccharomyces cerevisiae [2]; [8]) | protein stability index (Saccharomyces cerevisiae [2]; [9])
1 | CPPPPPSLLLLC | 0.223 ± 0.0038 | 0.531 ± 0.025 | 0.6762 ± 0.0035 | 0.591 ± 0.012 | 0.666 ± 0.011 | 0.168 ± 0.0086 | 0.19 ± 0.013 | 0.29753 ± 0.00015
2 | CRLCVFGVWFCG | 0.499 ± 0.033 | 0.532 ± 0.033 | 0.535 ± 0.012 | 0.443 ± 0.018 | 0.5751 ± 0.0034 | 0.448 ± 0.037 | 0.412 ± 0.022 | 0.5405 ± 0.0014
3 | CSPAFRPIVFVL | 0.225 ± 0.013 | 0.2771 ± 0.00097 | 0.2732 ± 0.00067 | 0.301 ± 0.026 | 0.407 ± 0.013 | 0.1802 ± 0.00032 | 0.163 ± 0.016 | 0.176 ± 0.0079
4 | CSVPLGVFAIVV | 0.48 ± 0.019 | 0.463 ± 0.0057 | 0.471 ± 0.032 | 0.382 ± 0.028 | 0.514 ± 0.0019 | 0.347 ± 0.0035 | 0.365 ± 0.038 | 0.4894 ± 0.0029
5 | CSYPTLSMYSTT | 0.74 ± 0.072 | 0.673 ± 0.068 | 0.766 ± 0.038 | 0.655 ± 0.013 | 0.718 ± 0.017 | 0.665 ± 0.007 | 0.645 ± 0.013 | 0.71 ± 0.011
6 | CTFFCICVFFLL | 0.392 ± 0.042 | 0.349 ± 0.019 | 0.413 ± 0.025 | 0.339 ± 0.027 | 0.463 ± 0.0064 | 0.267 ± 0.012 | 0.281 ± 0.022 | 0.4 ± 0.0063
7 | CTLVVGLFVLVV | 0.362 ± 0.0094 | 0.168 ± 0.02 | 0.315 ± 0.022 | 0.209 ± 0.034 | 0.375 ± 0.024 | 0.168 ± 0.0065 | 0.216 ± 0.028 | 0.322 ± 0.0064
8 | CVGLYCLFVLLG | 0.248 ± 0.004 | 0.289 ± 0.0046 | 0.357 ± 0.0088 | 0.273 ± 0.034 | 0.449 ± 0.019 | 0.172 ± 0.0049 | 0.161 ± 0.018 | 0.278 ± 0.0049
9 | CVISLVTAVRLF | 0.4644 ± 0.0021 | 0.514 ± 0.023 | 0.5526 ± 0.0029 | 0.453 ± 0.022 | 0.589 ± 0.019 | 0.405 ± 0.028 | 0.426 ± 0.026 | 0.544 ± 0.018
10 | DDVRFLLWGLCC | 0.324 ± 0.027 | 0.48 ± 0.022 | 0.459 ± 0.018 | 0.398 ± 0.024 | 0.5595 ± 0.0051 | 0.183 ± 0.0027 | 0.218 ± 0.019 | 0.3644 ± 0.0027
11 | DQPLWIGVLAYC | 0.455 ± 0.025 | 0.434 ± 0.04 | 0.4712 ± 0.00085 | 0.31 ± 0.04 | 0.502 ± 0.011 | 0.272 ± 0.0047 | 0.325 ± 0.013 | 0.487 ± 0.022
12 | DRRYIISLIYIL | 0.113 ± 0.059 | 0.32 ± 0.022 | 0.5045 ± 0.0033 | 0.369 ± 0.023 | 0.576 ± 0.035 | 0.0892 ± 0.014 | 0.0874 ± 0.015 | 0.105 ± 0.0088
13 | DSGMLDFLLMAW | 0.598 ± 0.16 | 0.541 ± 0.039 | 0.545 ± 0.015 | 0.432 ± 0.035 | 0.57175 ± 0.00049 | 0.421 ± 0.011 | 0.451 ± 0.013 | 0.53 ± 0.0056
14 | DSTLLYRPPSPA | 0.7089 ± 0.0008 | 0.672 ± 0.032 | 0.713 ± 0.02 | 0.646 ± 0.019 | 0.7252 ± 0.0017 | 0.651 ± 0.021 | 0.637 ± 0.02 | 0.683 ± 0.022
15 | DVVVIFGILCYC | 0.267 ± 0.013 | 0.0711 ± 0.0034 | 0.16 ± 0.0049 | 0.156 ± 0.045 | 0.3173 ± 0.0014 | 0.125 ± 0.014 | 0.15 ± 0.032 | 0.263 ± 0.0032
16 | DYRCWCAILVSS | 0.2611 ± 0.00049 | 0.162 ± 0.0075 | 0.187 ± 0.0085 | 0.207 ± 0.029 | 0.3345 ± 0.0016 | 0.146 ± 0.013 | 0.172 ± 0.032 | 0.246 ± 0.013
17 | DYSVIPSLALLP | 0.218 ± 0.021 | 0.692 ± 0.013 | 0.73118 ± 3.3e-05 | 0.657 ± 0.028 | 0.733 ± 0.015 | 0.669 ± 0.022 | 0.673 ± 0.0088 | 0.714 ± 0.02
18 | ECLRLTTKKKIN | 0.173 ± 0.011 | 0.581 ± 0.079 | 0.733 ± 0.069 | 0.657 ± 0.055 | 0.704 ± 0.032 | 0.133 ± 0.0031 | 0.146 ± 0.039 | 0.197 ± 0.088
19 | EDRKRNKERRWT | 0.4256 ± 0.0024 | 0.679 ± 0.024 | 0.702 ± 0.013 | 0.642 ± 0.015 | 0.716 ± 0.0076 | 0.305 ± 0.0042 | 0.303 ± 0.027 | 0.57 ± 0.01
20 | EFWWPFDRRGVI | 0.748 ± 0.011 | 0.76 ± 0.037 | 0.807 ± 0.011 | 0.7244 ± 0.0059 | 0.83 ± 0.015 | 0.721 ± 0.029 | 0.7117 ± 0.0043 | 0.822 ± 0.012
21 | EKKRERQKGEME | 0.579 ± 0.12 | 0.656 ± 0.055 | 0.7542 ± 0.0053 | 0.6109 ± 0.0056 | 0.72 ± 0.027 | 0.627 ± 0.026 | 0.635 ± 0.014 | 0.717 ± 0.012
22 | ETQKEKRENAKP | 0.713 ± 0.0091 | 0.649 ± 0.028 | 0.70222 ± 0.00044 | 0.646 ± 0.032 | 0.71 ± 0.035 | 0.6492 ± 0.0039 | 0.623 ± 0.016 | 0.677 ± 0.024
23 | EVGFHRRWVALS | 0.189 ± 0.0082 | 0.612 ± 0.052 | 0.7235 ± 0.007 | 0.65 ± 0.015 | 0.737 ± 0.019 | 0.114 ± 0.02 | 0.141 ± 0.016 | 0.275 ± 0.053
24 | EWGLGEIVVKVA | 0.259 ± 0.057 | 0.563 ± 0.025 | 0.654 ± 0.013 | 0.534 ± 0.011 | 0.684 ± 0.015 | 0.138 ± 0.0032 | 0.162 ± 0.013 | 0.2153 ± 0.0017
25 | FAFPTPPPLLFD | 0.751 ± 0.027 | 0.68 ± 0.047 | 0.7511 ± 0.00095 | 0.693 ± 0.035 | 0.735 ± 0.0083 | 0.667 ± 0.0073 | 0.676 ± 0.0095 | 0.736 ± 0.013

Row | Sequence | protein stability index (Saccharomyces cerevisiae [1]) | protein stability index (Saccharomyces cerevisiae [2]; [3]) | protein stability index (Saccharomyces cerevisiae [2]; [4]) | protein stability index (Saccharomyces cerevisiae [2]; [5]) | protein stability index (Saccharomyces cerevisiae [2]; [6]) | protein stability index (Saccharomyces cerevisiae [2]; [7]) | protein stability index (Saccharomyces cerevisiae [2]; [8]) | protein stability index (Saccharomyces cerevisiae [2]; [9])
26 | FCGWLGVYLVKG | 0.494 ± 0.076 | 0.5909 ± 0.001 | 0.6581 ± 0.00083 | 0.484 ± 0.026 | 0.656 ± 0.0023 | 0.481 ± 0.035 | 0.49 ± 0.015 | 0.668 ± 0.062
27 | FFCRWGSTVTLL |  | 0.604 ± 0.034 | 0.696 ± 0.013 | 0.557 ± 0.014 | 0.647 ± 0.037 | 0.4076 ± 0.001 | 0.427 ± 0.01 | 0.559 ± 0.011
28 | GAVRGWGWVSFV |  | 0.622 ± 0.0072 | 0.789 ± 0.011 | 0.595 ± 0.025 | 0.71792 ± 4.5e-05 | 0.357 ± 0.054 | 0.317 ± 0.04 | 0.436 ± 0.0078
29 | GFYQSGGLVVVV |  | 0.6489 ± 0.0026 | 0.674 ± 0.014 | 0.501 ± 0.03 | 0.663 ± 0.0058 | 0.482 ± 0.017 | 0.515 ± 0.013 | 0.64 ± 0.028
30 | GGGGGGGDVLVW |  | 0.265 ± 0.04 | 0.363 ± 0.036 | 0.265 ± 0.037 | 0.426 ± 0.0099 | 0.202 ± 0.022 | 0.244 ± 0.034 | 0.392 ± 0.0048
31 | LPLPPPGSPPPL |  | 0.653 ± 0.032 | 0.744 ± 0.036 | 0.668 ± 0.021 | 0.726 ± 0.0077 | 0.659 ± 0.014 | 0.682 ± 0.033 | 0.698 ± 0.0069
32 | PSLVFLPPPPPR |  | 0.673 ± 0.04 | 0.7452 ± 0.0056 | 0.677 ± 0.0098 | 0.7475 ± 0.0016 | 0.681 ± 0.018 | 0.701 ± 0.025 | 0.72099 ± 0.00046
33 | RDTTQRRRKTAA |  | 0.657 ± 0.039 | 0.662 ± 0.026 | 0.6608 ± 0.0048 | 0.6583 ± 0.005 | 0.443 ± 0.0084 | 0.448 ± 0.012 | 0.60824 ± 0.00016
34 | RWRLWGGWWVVG |  | 0.601 ± 0.028 | 0.727 ± 0.012 | 0.579 ± 0.022 | 0.718 ± 0.017 | 0.191 ± 0.019 | 0.196 ± 0.022 | 0.419 ± 0.015
35 | TGPVFVSFRLLH |  | 0.703 ± 0.065 | 0.752 ± 0.012 | 0.67 ± 0.066 | 0.737 ± 0.024 | 0.384 ± 0.015 | 0.405 ± 0.035 | 0.627 ± 0.0095
36 | TLDCKFGRGGIG |  | 0.309 ± 0.015 | 0.423 ± 0.013 | 0.332 ± 0.0069 | 0.401 ± 0.017 | 0.325 ± 0.0077 | 0.321 ± 0.013 | 0.392 ± 0.0016
37 | WLFAILPSRLIA |  | 0.284 ± 0.021 | 0.373 ± 0.0075 | 0.344 ± 0.035 | 0.488 ± 0.0068 | 0.0644 ± 0.0086 | 0.0673 ± 0.012 | 0.0638 ± 0.0027
38 | YTGRFDSSDIWY | 0.818 ± 0.057 |  |  |  |  |  |  | 
39 | YTGVCEWRANVH | 0.689 ± 0.0096 |  |  |  |  |  |  | 
40 | YTKTGRQRHHCR | 0.677 ± 0.011 |  |  |  |  |  |  | 
41 | YTSELPVLARRH | 0.633 ± 0.021 |  |  |  |  |  |  | 
42 | YVALSTGPLRTP | 0.6828 ± 0.0065 |  |  |  |  |  |  | 
43 | YVELTGRITTKL | 0.716 ± 0.038 |  |  |  |  |  |  | 
44 | YVEVIDERYPCV | 0.757 ± 0.021 |  |  |  |  |  |  | 
45 | YVGLAAGEVGMG | 0.661 ± 0.02 |  |  |  |  |  |  | 
46 | YVQFISFAGTRP | 0.724 ± 0.025 |  |  |  |  |  |  | 
47 | YVSHLLMVGRFI | 0.616 ± 0.01 |  |  |  |  |  |  | 
48 | YWLCITECHIRK | 0.541 ± 0.0092 |  |  |  |  |  |  | 
49 | YYEVVCPLQHRI | 0.46 ± 0.16 |  |  |  |  |  |  | 
50 | YYGCGAFGFSVR | 0.695 ± 0.014 |  |  |  |  |  |  | 
